Consider one molecule from paper PMC2747274, “Structural Studies of a Four-MBT Repeat Protein MBTD1” (PLoS ONE, 2009).

Where no end group is shown, it is not given here.

This experiment addresses T1, human L3MBTL1 R467C mutant containing 3 MBT repeats (residues 200-522, 3MBT) (human).
T1 construct: also called L3MBTL1 Arg467Cys mutant; source: expressed and purified as previously described [20]
Briefly: ITC; L3MBTL1 R467C mutant titrated with H4K20me2; data not shown. Conditions: both partners purified. (In general: ITC needs no label: the signal is the heat of the interaction.)

With RHRK(dimethyl)VLRDN [H4K20me2 peptide (used for co-crystallisation and ITC with L3MBTL1 R467C)], the stoichiometry N – broadly, the number of molecules, sites or subunits per partner or assembly – was 1.
